The values that follow come from patent US20240391961A1 (OREGON STATE UNIVERSITY, published 2024).

T1: 14-3-3ζ nhpSer58 with a FLAG tag at its N-terminus (Homo sapiens (Human), UniProt P63104 1-245)
T1 sequence: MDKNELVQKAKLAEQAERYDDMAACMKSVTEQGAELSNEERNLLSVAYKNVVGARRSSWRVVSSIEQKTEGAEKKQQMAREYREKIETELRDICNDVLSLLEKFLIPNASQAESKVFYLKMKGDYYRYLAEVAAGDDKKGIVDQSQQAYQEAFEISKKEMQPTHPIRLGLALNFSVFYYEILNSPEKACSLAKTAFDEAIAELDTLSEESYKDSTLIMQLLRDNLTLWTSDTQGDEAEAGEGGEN

B1: 14-3-3ζ S58E (other)
chain: MDKNELVQKAKLAEQAERYDDMAACMKSVTEQGAELSNEERNLLSVAYKNVVGARRSEWRVVSSIEQKTEGAEKKQQMAREYREKIETELRDICNDVLSLLEKFLIPNASQAESKVFYLKMKGDYYRYLAEVAAGDDKKGIVDQSQQAYQEAFEISKKEMQPTHPIRLGLALNFSVFYYEILNSPEKACSLAKTAFDEAIAELDTLSEESYKDSTLIMQLLRDNLTLWTSDTQGDEAEAGEGGEN
notes: also called S58E phosphomimetic; 14-3-3ζ with glutamate at residue 58
B2: 2-amino-3-ketobutyrate coenzyme A ligase, mitochondrial [OS = Homo sapiens] (other, UniProt O75600 22-419, looked up)
chain: SALAQLRGILEGELEGIRGAGTWKSERVITSRQGPHIRVDGVSGGILNFCANNYLGLSSHPEVIQAGLQALEEFGAGLSSVRFICGTQSIHKNLEAKIARFHQREDAILYPSCYDANAGLFEALLTPEDAVLSDELNHASIIDGIRLCKAHKYRYRHLDMADLEAKLQEAQKHRLRLVATDGAFSMDGDIAPLQEICCLASRYGALVFMDECHATGFLGPTGRGTDELLGVMDQVTIINSTLGKALGGASGGYTTGPGPLVSLLRQRARPYLFSNSLPPAVVGCASKALDLLMGSNTIVQSMAAKTQRFRSKMEAAGFTISGASHPICPVMLGDARLASRMADDMLKRGIFVIGFSYPVVPKGKARIRVQISAVHSEEDIDRCVEAFVEVGRLHGALP
B3: Pre-mRNA-splicing factor SLU7 [OS = Homo sapiens] (other, UniProt O95391 2-586, looked up)
chain: SATVVDAVNAAPLSGSKEMSLEEPKKMTREDWRKKKELEEQRKLGNAPAEVDEEGKDINPHIPQYISSVPWYIDPSKRPTLKHQRPQPEKQKQFSSSGEWYKRGVKENSIITKYRKGACENCGAMTHKKKDCFERPRRVGAKFTGTNIAPDEHVQPQLMFDYDGKRDRWNGYNPEEHMKIVEEYAKVDLAKRTLKAQKLQEELASGKLVEQANSPKHQWGEEEPNSQMEKDHNSEDEDEDKYADDIDMPGQNFDSKRRITVRNLRIREDIAKYLRNLDPNSAYYDPKTRAMRENPYANAGKNPDEVSYAGDNFVRYTGDTISMAQTQLFAWEAYDKGSEVHLQADPTKLELLYKSFKVKKEDFKEQQKESILEKYGGQEHLDAPPAELLLAQTEDYVEYSRHGTVIKGQERAVACSKYEEDVKIHNHTHIWGSYWKEGRWGYKCCHSFFKYSYCTGEAGKEIVNSEECIINEITGEESVKKPQTLMELHQEKLKEEKKKKKKKKKKHRKSSSDSDDEEKKHEKLKKALNAEEARLLHVKETMQIDERKRPYNSMYETREPTEEEMEAYRMKRQRPDDPMASFLGQ
B4: Cell division cycle 5-like protein [OS = Homo sapiens] (other, UniProt Q99459 1-802, looked up)
chain: MPRIMIKGGVWRNTEDEILKAAVMKYGKNQWSRIASLLHRKSAKQCKARWYEWLDPSIKKTEWSREEEEKLLHLAKLMPTQWRTIAPIIGRTAAQCLEHYEFLLDKAAQRDNEEETTDDPRKLKPGEIDPNPETKPARPDPIDMDEDELEMLSEARARLANTQGKKAKRKAREKQLEEARRLAALQKRRELRAAGIEIQKKRKRKRGVDYNAEIPFEKKPALGFYDTSEENYQALDADFRKLRQQDLDGELRSEKEGRDRKKDKQHLKRKKESDLPSAILQTSGVSEFTKKRSKLVLPAPQISDAELQEVVKVGQASEIARQTAEESGITNSASSTLLSEYNVTNNSVALRTPRTPASQDRILQEAQNLMALTNVDTPLKGGLNTPLHESDFSGVTPQRQVVQTPNTVLSTPFRTPSNGAEGLTPRSGTTPKPVINSTPGRTPLRDKLNINPEDGMADYSDPSYVKQMERESREHLRLGLLGLPAPKNDFEIVLPENAEKELEEREIDDTYIEDAADVDARKQAIRDAERVKEMKRMHKAVQKDLPRPSEVNETILRPLNVEPPLTDLQKSEELIKKEMITMLHYDLLHHPYEPSGNKKGKTVGFGTNNSEHITYLEHNPYEKFSKEELKKAQDVLVQEMEVVKQGMSHGELSSEAYNQVWEECYSQVLYLPGQSRYTRANLASKKDRIESLEKRLEINRGHMTTEAKRAAKMEKKMKILLGGYQSRAMGLMKQLNDLWDQIEQAHLELRTFEELKKHEDSAIPRRLECLKEDVQRQQEREKELQHRYADLLLEKETLKSKF
B5: Atherin [OS = Homo sapiens] (other, UniProt Q6SPF0 1-538, looked up)
chain: MAGPPALPPPETAAAATTAAAASSSAASPHYQEWILDTIDSLRSRKARPDLERICRMVRRRHGPEPERTRAELEKLIQQRAVLRVSYKGSISYRNAARVQPPRRGATPPAPPRAPRGAPAAAAAAAPPPTPAPPPPPAPVAAAAPARAPRAAAAAATAPPSPGPAQPGPRAQRAAPLAAPPPAPAAPPAVAPPAGPRRAPPPAVAAREPPLPPPPQPPAPPQQQQPPPPQPQPPPEGGAVRAGGAARPVSLREVVRYLGGSGGAGGRLTRGRVQGLLEEEAAARGRLERTRLGALALPRGDRPGRAPPAASARPSRSKRGGEERVLEKEEEEDDDEDEDEEDDVSEGSEVPESDRPAGAQHHQLNGERGPQSAKERVKEWTPCGPHQGQDEGRGPAPGSGTRQVFSMAAMNKEGGTASVATGPDSPSPVPLPPGKPALPGADGTPFGCPPGRKEKPSDPVEWTVMDVVEYFTEAGFPEQATAFQEQEIDGKSLLLMQRTDVLTGLSIRLGPALKIYEHHIKVLQQGHFEDDDPDGFLG
B6: 14-3-3 protein gamma [OS = Homo sapiens] (other, UniProt P61981 1-247, looked up)
chain: MVDREQLVQKARLAEQAERYDDMAAAMKNVTELNEPLSNEERNLLSVAYKNVVGARRSSWRVISSIEQKTSADGNEKKIEMVRAYREKIEKELEAVCQDVLSLLDNYLIKNCSETQYESKVFYLKMKGDYYRYLAEVATGEKRATVVESSEKAYSEAHEISKEHMQPTHPIRLGLALNYSVFYYEIQNAPEQACHLAKTAFDDAIAELDTLNEDSYKDSTLIMQLLRDNLTLWTSDQQDDDGGEGNN
B7: 14-3-3 protein beta/alpha [OS = Homo sapiens] (other, UniProt P31946 1-246, looked up)
chain: MTMDKSELVQKAKLAEQAERYDDMAAAMKAVTEQGHELSNEERNLLSVAYKNVVGARRSSWRVISSIEQKTERNEKKQQMGKEYREKIEAELQDICNDVLELLDKYLIPNATQPESKVFYLKMKGDYFRYLSEVASGDNKQTTVSNSQQAYQEAFEISKKEMQPTHPIRLGLALNFSVFYYEILNSPEKACSLAKTAFDEAIAELDTLNEESYKDSTLIMQLLRDNLTLWTSENQGDEGDAGEGEN
B8: Transformer-2 protein homolog alpha [OS = Homo sapiens] (other, UniProt Q13595 2-282, looked up)
chain: SDVEENNFEGRESRSQSKSPTGTPARVKSESRSGSRSPSRVSKHSESHSRSRSKSRSRSRRHSHRRYTRSRSHSHSHRRRSRSRSYTPEYRRRRSRSHSPMSNRRRHTGSRANPDPNTCLGVFGLSLYTTERDLREVFSRYGPLSGVNVVYDQRTGRSRGFAFVYFERIDDSKEAMERANGMELDGRRIRVDYSITKRAHTPTPGIYMGRPTHSGGGGGGGGGGGGGGGGRRRDSYYDRGYDRGYDRYEDYDYRYRRRSPSPYYSRYRSRSRSRSYSPRRY
B9: 14-3-3 protein eta [OS = Homo sapiens] (other, UniProt Q04917 2-246, looked up)
chain: GDREQLLQRARLAEQAERYDDMASAMKAVTELNEPLSNEDRNLLSVAYKNVVGARRSSWRVISSIEQKTMADGNEKKLEKVKAYREKIEKELETVCNDVLSLLDKFLIKNCNDFQYESKVFYLKMKGDYYRYLAEVASGEKKNSVVEASEAAYKEAFEISKEQMQPTHPIRLGLALNFSVFYYEIQNAPEQACLLAKQAFDDAIAELDTLNEDSYKDSTLIMQLLRDNLTLWTSDQQDEEAGEGN

One series concerns the molecule itself. In words: SEC-MALS (homodimer).
Excerpt: 14-3-3 dimerization can be regulated by phosphorylation of a serine residue at the dimer interface, e.g., serine residue 58 (Ser58).
In the case of B1, the binding result is recorded as “binds”.

Another series has as its target T1, 14-3-3ζ nhpSer58 with a FLAG tag at its ….
Assay: not given
With B2, the FC came out at 0.0267 fold.
Molecule B3 returned an FC of 0.0628 fold.
B4: the FC came out at 0.0607 fold.
B5 registered an FC of 0.0524 fold.
In the case of B6, the FC came to 0.0531 fold.
On to B7, for which the FC was 0.0486 fold.
B8 yielded an FC of 0.0906 fold.
Still for that read-out and setting: then B9, with 0.0561 fold.
